Key:
[1] = target: Standard VE-cadherin (standard solutions run with the Bender MedSystems BMS253 kit) (UniProt P33151); assay: Bender BMS253 ELISA kit; standard VE-cadherin at 5 ng/mL
[2] = target: Standard VE-cadherin (standard solutions run with the Bender MedSystems BMS253 kit) (UniProt P33151); assay: Bender BMS253 ELISA kit; standard VE-cadherin at 10 ng/mL
[3] = target: Standard VE-cadherin (standard solutions run with the Bender MedSystems BMS253 kit) (UniProt P33151); assay: Bender BMS253 ELISA kit; standard VE-cadherin at 2.5 ng/mL
[4] = target: Standard VE-cadherin (standard solutions run with the Bender MedSystems BMS253 kit) (UniProt P33151); assay: Bender BMS253 ELISA kit; standard VE-cadherin at 0.16 ng/mL
[5] = target: Standard VE-cadherin (standard solutions run with the Bender MedSystems BMS253 kit) (UniProt P33151); assay: Bender BMS253 ELISA kit; standard VE-cadherin at 0.32 ng/mL
[6] = target: Standard VE-cadherin (standard solutions run with the Bender MedSystems BMS253 kit) (UniProt P33151); assay: Bender BMS253 ELISA kit; standard VE-cadherin at 0.63 ng/mL
[7] = target: Standard VE-cadherin (standard solutions run with the Bender MedSystems BMS253 kit) (UniProt P33151); assay: Bender BMS253 ELISA kit; standard VE-cadherin at 1.25 ng/mL
[8] = target: Standard VE-cadherin (standard solutions run with the Bender MedSystems BMS253 kit) (UniProt P33151); assay: Bender BMS253 ELISA kit; standard VE-cadherin at 5 ng/mL; first replicate
[9] = target: Standard VE-cadherin (standard solutions run with the Bender MedSystems BMS253 kit) (UniProt P33151); assay: Bender BMS253 ELISA kit; standard VE-cadherin at 10 ng/mL; first replicate
[10] = target: Standard VE-cadherin (standard solutions run with the Bender MedSystems BMS253 kit) (UniProt P33151); assay: Bender BMS253 ELISA kit; standard VE-cadherin at 5 ng/mL; second replicate
[11] = target: Standard VE-cadherin (standard solutions run with the Bender MedSystems BMS253 kit) (UniProt P33151); assay: Bender BMS253 ELISA kit; standard VE-cadherin at 10 ng/mL; second replicate
[12] = target: Standard VE-cadherin (standard solutions run with the Bender MedSystems BMS253 kit) (UniProt P33151); assay: Bender BMS253 ELISA kit; standard VE-cadherin at 2.5 ng/mL; first replicate
[13] = target: Standard VE-cadherin (standard solutions run with the Bender MedSystems BMS253 kit) (UniProt P33151); assay: Bender BMS253 ELISA kit; standard VE-cadherin at 0.16 ng/mL; first replicate
[14] = target: Standard VE-cadherin (standard solutions run with the Bender MedSystems BMS253 kit) (UniProt P33151); assay: Bender BMS253 ELISA kit; standard VE-cadherin at 0.32 ng/mL; first replicate
[15] = target: Standard VE-cadherin (standard solutions run with the Bender MedSystems BMS253 kit) (UniProt P33151); assay: Bender BMS253 ELISA kit; standard VE-cadherin at 0.63 ng/mL; first replicate
[16] = target: Standard VE-cadherin (standard solutions run with the Bender MedSystems BMS253 kit) (UniProt P33151); assay: Bender BMS253 ELISA kit; standard VE-cadherin at 1.25 ng/mL; first replicate
[17] = target: Standard VE-cadherin (standard solutions run with the Bender MedSystems BMS253 kit) (UniProt P33151); assay: Bender BMS253 ELISA kit; standard VE-cadherin at 2.5 ng/mL; second replicate
[18] = target: Standard VE-cadherin (standard solutions run with the Bender MedSystems BMS253 kit) (UniProt P33151); assay: Bender BMS253 ELISA kit; standard VE-cadherin at 0.16 ng/mL; second replicate
[19] = target: Standard VE-cadherin (standard solutions run with the Bender MedSystems BMS253 kit) (UniProt P33151); assay: Bender BMS253 ELISA kit; standard VE-cadherin at 0.32 ng/mL; second replicate
[20] = target: Standard VE-cadherin (standard solutions run with the Bender MedSystems BMS253 kit) (UniProt P33151); assay: Bender BMS253 ELISA kit; standard VE-cadherin at 0.63 ng/mL; second replicate
[21] = target: Standard VE-cadherin (standard solutions run with the Bender MedSystems BMS253 kit) (UniProt P33151); assay: Bender BMS253 ELISA kit; standard VE-cadherin at 1.25 ng/mL; second replicate
[22] = target: Standard VE-cadherin (standard solutions run with the Bender MedSystems BMS253 kit) (UniProt P33151); assay: Bender BMS253 ELISA kit; standard VE-cadherin at 5 ng/mL; OD minus OD at 0 ng/mL
[23] = target: Standard VE-cadherin (standard solutions run with the Bender MedSystems BMS253 kit) (UniProt P33151); assay: Bender BMS253 ELISA kit; standard VE-cadherin at 10 ng/mL; OD minus OD at 0 ng/mL
[24] = target: Standard VE-cadherin (standard solutions run with the Bender MedSystems BMS253 kit) (UniProt P33151); assay: Bender BMS253 ELISA kit; standard VE-cadherin at 2.5 ng/mL; OD minus OD at 0 ng/mL
[25] = target: Standard VE-cadherin (standard solutions run with the Bender MedSystems BMS253 kit) (UniProt P33151); assay: Bender BMS253 ELISA kit; standard VE-cadherin at 0.16 ng/mL; OD minus OD at 0 ng/mL
[26] = target: Standard VE-cadherin (standard solutions run with the Bender MedSystems BMS253 kit) (UniProt P33151); assay: Bender BMS253 ELISA kit; standard VE-cadherin at 0.32 ng/mL; OD minus OD at 0 ng/mL
[27] = target: Standard VE-cadherin (standard solutions run with the Bender MedSystems BMS253 kit) (UniProt P33151); assay: Bender BMS253 ELISA kit; standard VE-cadherin at 0.63 ng/mL; OD minus OD at 0 ng/mL
[28] = target: Standard VE-cadherin (standard solutions run with the Bender MedSystems BMS253 kit) (UniProt P33151); assay: Bender BMS253 ELISA kit; standard VE-cadherin at 1.25 ng/mL; OD minus OD at 0 ng/mL

UniProt P33151, sequence (P33151 48-593 limits assumed): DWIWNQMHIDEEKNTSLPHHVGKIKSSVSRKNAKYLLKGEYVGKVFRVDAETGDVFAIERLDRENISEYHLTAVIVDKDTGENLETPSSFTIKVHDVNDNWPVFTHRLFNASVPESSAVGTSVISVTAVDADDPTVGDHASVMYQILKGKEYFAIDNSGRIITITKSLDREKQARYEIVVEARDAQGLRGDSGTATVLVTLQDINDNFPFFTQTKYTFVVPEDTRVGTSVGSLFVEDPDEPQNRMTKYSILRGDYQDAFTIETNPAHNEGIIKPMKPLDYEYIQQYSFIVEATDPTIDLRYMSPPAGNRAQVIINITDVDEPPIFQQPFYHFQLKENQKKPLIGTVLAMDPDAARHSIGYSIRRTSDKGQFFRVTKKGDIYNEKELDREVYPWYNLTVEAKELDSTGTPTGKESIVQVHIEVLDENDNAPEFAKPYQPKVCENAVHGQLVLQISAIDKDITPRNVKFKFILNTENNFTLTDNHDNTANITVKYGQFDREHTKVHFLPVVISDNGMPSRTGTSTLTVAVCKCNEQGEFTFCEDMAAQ

mAb provided in the human soluble VE-cadherin ELISA kit (Bender MedSystems, reference BMS253) (antibody)
mean OD [1]: 1.17 OD
mean OD [2]: 2.63 OD
mean OD [3]: 0.616 OD
mean OD [4]: 0.154 OD
mean OD [5]: 0.22 OD
mean OD [6]: 0.244 OD
mean OD [7]: 0.413 OD
OD [8]: 1.29 OD
OD [9]: 2.41 OD
OD [10]: 1.05 OD
OD [11]: 2.85 OD
OD [12]: 0.61 OD
OD [13]: 0.145 OD
OD [14]: 0.258 OD
OD [15]: 0.265 OD
OD [16]: 0.371 OD
OD [17]: 0.621 OD
OD [18]: 0.162 OD
OD [19]: 0.181 OD
OD [20]: 0.222 OD
OD [21]: 0.454 OD
corr. mean (OD) [22]: 1.06 OD
corr. mean (OD) [23]: 2.52 OD
corr. mean (OD) [24]: 0.508 OD
corr. mean (OD) [25]: 0.046 OD
corr. mean (OD) [26]: 0.112 OD
corr. mean (OD) [27]: 0.136 OD
corr. mean (OD) [28]: 0.305 OD

— patent US20100120171A1
